Experimental findings from patent US20250115669A1, “FGFR1/KLB Targeting Agonistic Antigen-Binding Proteins and Conjugates Thereof with GLP-1R Agonistic Peptides” (SANOFI, priority 2020, published 2025) are described below.

T1: human beta-Klotho (Homo sapiens, UniProt Q86Z14)
T1 sequence (Q86Z14 1-1044): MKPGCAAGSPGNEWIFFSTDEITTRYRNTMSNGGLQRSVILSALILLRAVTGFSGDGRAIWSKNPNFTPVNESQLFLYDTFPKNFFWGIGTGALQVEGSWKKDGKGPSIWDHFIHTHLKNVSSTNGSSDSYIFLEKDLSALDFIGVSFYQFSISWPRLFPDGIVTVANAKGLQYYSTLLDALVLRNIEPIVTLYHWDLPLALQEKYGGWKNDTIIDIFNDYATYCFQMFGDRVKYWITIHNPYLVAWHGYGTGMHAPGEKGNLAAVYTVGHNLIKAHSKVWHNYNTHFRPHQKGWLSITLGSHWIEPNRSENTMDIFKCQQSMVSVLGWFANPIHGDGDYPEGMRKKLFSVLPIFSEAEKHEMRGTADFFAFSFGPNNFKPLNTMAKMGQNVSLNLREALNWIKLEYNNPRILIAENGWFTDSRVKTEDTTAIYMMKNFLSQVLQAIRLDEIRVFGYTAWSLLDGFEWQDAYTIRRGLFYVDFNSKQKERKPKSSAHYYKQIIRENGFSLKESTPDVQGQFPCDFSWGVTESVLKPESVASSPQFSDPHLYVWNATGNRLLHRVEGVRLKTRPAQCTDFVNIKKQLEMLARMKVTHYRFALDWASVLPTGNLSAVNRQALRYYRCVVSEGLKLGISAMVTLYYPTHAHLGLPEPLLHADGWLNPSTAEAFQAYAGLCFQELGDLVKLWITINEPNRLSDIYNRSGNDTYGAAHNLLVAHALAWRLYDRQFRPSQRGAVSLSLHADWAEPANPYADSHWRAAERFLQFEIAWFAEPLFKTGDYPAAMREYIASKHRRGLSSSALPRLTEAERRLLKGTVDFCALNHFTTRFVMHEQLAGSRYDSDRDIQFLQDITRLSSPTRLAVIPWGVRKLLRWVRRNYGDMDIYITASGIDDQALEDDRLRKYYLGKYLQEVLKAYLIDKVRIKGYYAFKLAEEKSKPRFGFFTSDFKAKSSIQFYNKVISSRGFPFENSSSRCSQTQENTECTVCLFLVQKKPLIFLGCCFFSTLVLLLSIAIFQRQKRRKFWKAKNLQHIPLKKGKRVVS

B1: Ab0332: IgG4 PE; 16H7 VL (N25S, D49S, D50E, D91E, N93A); 16H7 VH (M34V, I83T, D109E) (antibody)
VH: QVTLKESGPVLVKPTETLTLTCTVSGFSLNNARVGVSWIRQPPGKALEWLAHIFSNDEKSYSTSLKSRLTISKDTSKSQVVLTMTNMDPVDTATYYCARSVVTGGYYYEGMDVWGQGTTVTVSS
light: SYVLTQPPSVSVAPGQTARITCGGSNIGSESVHWYQQKPGQAPVLVVYSESDRPSGIPERFSGSNSGNTATLTISRVEAGDEADYYCQVWEGASDHVVFGGGTKLTVLGQPKANPTVTLFPPSSEELQANKATLVCLISDFYPGAVTVAWKADGSPVKAGVETTKPSKQSNNKYAASSYLSLTPEQWKSHRSYSCQVTHEGSTVEKTVAPTECS
B2: Ab0339: IgG4 PE; 16H7 VL (N25S, D49A, D50E, D91A, N93S); 16H7 VH (M34V, I83T, D109E) (antibody)
VH: QVTLKESGPVLVKPTETLTLTCTVSGFSLNNARVGVSWIRQPPGKALEWLAHIFSNDEKSYSTSLKSRLTISKDTSKSQVVLTMTNMDPVDTATYYCARSVVTGGYYYEGMDVWGQGTTVTVSS
light: SYVLTQPPSVSVAPGQTARITCGGSNIGSESVHWYQQKPGQAPVLVVYAESDRPSGIPERFSGSNSGNTATLTISRVEAGDEADYYCQVWAGSSDHVVFGGGTKLTVLGQPKANPTVTLFPPSSEELQANKATLVCLISDFYPGAVTVAWKADGSPVKAGVETTKPSKQSNNKYAASSYLSLTPEQWKSHRSYSCQVTHEGSTVEKTVAPTECS
B3: Ab0342: IgG4 PE; 16H7 VL (N25S, D49A, D50A, D91A, N93E); 16H7 VH (M34V, I83T, D109E) (antibody)
VH: QVTLKESGPVLVKPTETLTLTCTVSGFSLNNARVGVSWIRQPPGKALEWLAHIFSNDEKSYSTSLKSRLTISKDTSKSQVVLTMTNMDPVDTATYYCARSVVTGGYYYEGMDVWGQGTTVTVSS
light: SYVLTQPPSVSVAPGQTARITCGGSNIGSESVHWYQQKPGQAPVLVVYAASDRPSGIPERFSGSNSGNTATLTISRVEAGDEADYYCQVWAGESDHVVFGGGTKLTVLGQPKANPTVTLFPPSSEELQANKATLVCLISDFYPGAVTVAWKADGSPVKAGVETTKPSKQSNNKYAASSYLSLTPEQWKSHRSYSCQVTHEGSTVEKTVAPTECS
B4: Ab0341: IgG4 PE; 16H7 VL (N25S, D49A, D50Y, D91A, N93S); 16H7 VH (M34V, I83T, D109E) (antibody)
VH: QVTLKESGPVLVKPTETLTLTCTVSGFSLNNARVGVSWIRQPPGKALEWLAHIFSNDEKSYSTSLKSRLTISKDTSKSQVVLTMTNMDPVDTATYYCARSVVTGGYYYEGMDVWGQGTTVTVSS
light: SYVLTQPPSVSVAPGQTARITCGGSNIGSESVHWYQQKPGQAPVLVVYAYSDRPSGIPERFSGSNSGNTATLTISRVEAGDEADYYCQVWAGSSDHVVFGGGTKLTVLGQPKANPTVTLFPPSSEELQANKATLVCLISDFYPGAVTVAWKADGSPVKAGVETTKPSKQSNNKYAASSYLSLTPEQWKSHRSYSCQVTHEGSTVEKTVAPTECS
B5: Ab0333: IgG4 PE; 16H7 VL (N25S, D49S, D50Y, D91A, N93S); 16H7 VH (M34V, I83T, D109E) (antibody)
VH: QVTLKESGPVLVKPTETLTLTCTVSGFSLNNARVGVSWIRQPPGKALEWLAHIFSNDEKSYSTSLKSRLTISKDTSKSQVVLTMTNMDPVDTATYYCARSVVTGGYYYEGMDVWGQGTTVTVSS
light: SYVLTQPPSVSVAPGQTARITCGGSNIGSESVHWYQQKPGQAPVLVVYSYSDRPSGIPERFSGSNSGNTATLTISRVEAGDEADYYCQVWAGSSDHVVFGGGTKLTVLGQPKANPTVTLFPPSSEELQANKATLVCLISDFYPGAVTVAWKADGSPVKAGVETTKPSKQSNNKYAASSYLSLTPEQWKSHRSYSCQVTHEGSTVEKTVAPTECS
B6: Ab0334: IgG4 PE; 16H7 VL (N25S, D49S, D50A, D91A, N93S); 16H7 VH (M34V, I83T, D109E) (antibody)
VH: QVTLKESGPVLVKPTETLTLTCTVSGFSLNNARVGVSWIRQPPGKALEWLAHIFSNDEKSYSTSLKSRLTISKDTSKSQVVLTMTNMDPVDTATYYCARSVVTGGYYYEGMDVWGQGTTVTVSS
light: SYVLTQPPSVSVAPGQTARITCGGSNIGSESVHWYQQKPGQAPVLVVYSASDRPSGIPERFSGSNSGNTATLTISRVEAGDEADYYCQVWAGSSDHVVFGGGTKLTVLGQPKANPTVTLFPPSSEELQANKATLVCLISDFYPGAVTVAWKADGSPVKAGVETTKPSKQSNNKYAASSYLSLTPEQWKSHRSYSCQVTHEGSTVEKTVAPTECS
B7: Ab0337: IgG4 PE; 16H7 VL (N25S, D49S, D50H, D91E, N93E); 16H7 VH (M34V, I83T, D109E) (antibody)
VH: QVTLKESGPVLVKPTETLTLTCTVSGFSLNNARVGVSWIRQPPGKALEWLAHIFSNDEKSYSTSLKSRLTISKDTSKSQVVLTMTNMDPVDTATYYCARSVVTGGYYYEGMDVWGQGTTVTVSS
light: SYVLTQPPSVSVAPGQTARITCGGSNIGSESVHWYQQKPGQAPVLVVYSHSDRPSGIPERFSGSNSGNTATLTISRVEAGDEADYYCQVWEGESDHVVFGGGTKLTVLGQPKANPTVTLFPPSSEELQANKATLVCLISDFYPGAVTVAWKADGSPVKAGVETTKPSKQSNNKYAASSYLSLTPEQWKSHRSYSCQVTHEGSTVEKTVAPTECS
B8: Ab0336: IgG4 PE; 16H7 VL (N25S, D49S, D50H, D91A, N93S); 16H7 VH (M34V, I83T, D109E) (antibody)
VH: QVTLKESGPVLVKPTETLTLTCTVSGFSLNNARVGVSWIRQPPGKALEWLAHIFSNDEKSYSTSLKSRLTISKDTSKSQVVLTMTNMDPVDTATYYCARSVVTGGYYYEGMDVWGQGTTVTVSS
light: SYVLTQPPSVSVAPGQTARITCGGSNIGSESVHWYQQKPGQAPVLVVYSHSDRPSGIPERFSGSNSGNTATLTISRVEAGDEADYYCQVWAGSSDHVVFGGGTKLTVLGQPKANPTVTLFPPSSEELQANKATLVCLISDFYPGAVTVAWKADGSPVKAGVETTKPSKQSNNKYAASSYLSLTPEQWKSHRSYSCQVTHEGSTVEKTVAPTECS
B9: Ab0340: IgG4 PE; 16H7 VL (N25S, D49A, D50E, D91E, N93S); 16H7 VH (M34V, I83T, D109E) (antibody)
VH: QVTLKESGPVLVKPTETLTLTCTVSGFSLNNARVGVSWIRQPPGKALEWLAHIFSNDEKSYSTSLKSRLTISKDTSKSQVVLTMTNMDPVDTATYYCARSVVTGGYYYEGMDVWGQGTTVTVSS
light: SYVLTQPPSVSVAPGQTARITCGGSNIGSESVHWYQQKPGQAPVLVVYAESDRPSGIPERFSGSNSGNTATLTISRVEAGDEADYYCQVWEGSSDHVVFGGGTKLTVLGQPKANPTVTLFPPSSEELQANKATLVCLISDFYPGAVTVAWKADGSPVKAGVETTKPSKQSNNKYAASSYLSLTPEQWKSHRSYSCQVTHEGSTVEKTVAPTECS
B10: Ab0343: IgG4 PE; 16H7 VL (N25S, D49A, D50A, D91A, N93S); 16H7 VH (M34V, I83T, D109E) (antibody)
VH: QVTLKESGPVLVKPTETLTLTCTVSGFSLNNARVGVSWIRQPPGKALEWLAHIFSNDEKSYSTSLKSRLTISKDTSKSQVVLTMTNMDPVDTATYYCARSVVTGGYYYEGMDVWGQGTTVTVSS
light: SYVLTQPPSVSVAPGQTARITCGGSNIGSESVHWYQQKPGQAPVLVVYAASDRPSGIPERFSGSNSGNTATLTISRVEAGDEADYYCQVWAGSSDHVVFGGGTKLTVLGQPKANPTVTLFPPSSEELQANKATLVCLISDFYPGAVTVAWKADGSPVKAGVETTKPSKQSNNKYAASSYLSLTPEQWKSHRSYSCQVTHEGSTVEKTVAPTECS
B11: Ab0338: IgG4 PE; 16H7 VL (N25S, D49S, D50S, D91A, N93S); 16H7 VH (M34V, I83T, D109E) (antibody)
VH: QVTLKESGPVLVKPTETLTLTCTVSGFSLNNARVGVSWIRQPPGKALEWLAHIFSNDEKSYSTSLKSRLTISKDTSKSQVVLTMTNMDPVDTATYYCARSVVTGGYYYEGMDVWGQGTTVTVSS
light: SYVLTQPPSVSVAPGQTARITCGGSNIGSESVHWYQQKPGQAPVLVVYSSSDRPSGIPERFSGSNSGNTATLTISRVEAGDEADYYCQVWAGSSDHVVFGGGTKLTVLGQPKANPTVTLFPPSSEELQANKATLVCLISDFYPGAVTVAWKADGSPVKAGVETTKPSKQSNNKYAASSYLSLTPEQWKSHRSYSCQVTHEGSTVEKTVAPTECS

This experiment addresses T1, human beta-Klotho. Briefly: SPR off-rate screening of antibody mutants (human beta-Klotho captured by anti-His antibody). In kind it is binding. The note with it: mean, n=3. The essentials:
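Off-rates (kd) were obtained by single exponential fitting of dissociation curves. Mutant antibodies at 50 nmol/L flowed over beta-Klotho held by an immobilized anti-His antibody, with 240 sec association and 300 sec dissociation.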
As to B1, the “koff human KLB” value is 0.00143 s⁻¹.

Take B2: the “koff human KLB” value is given as “invalid fit”.

With B3, the “koff human KLB” value is listed as “invalid fit”.

B4: the “koff human KLB” value was “invalid fit”.

Regarding B5, the “koff human KLB” value stood at 0.0002507 s⁻¹.

Take B6: the “koff human KLB” value was “invalid fit”.

Turning to B7, the “koff human KLB” value was determined as 0.0005296 s⁻¹.

Turning to B8, the “koff human KLB” value is listed as “invalid fit”.

Regarding B9, the “koff human KLB” value was determined as 0.00176 s⁻¹.

On to B10, for which the “koff human KLB” value is listed as “invalid fit”.

Take B11: the “koff human KLB” value stood at 0.0004292 s⁻¹.
